# In patent US12527862B2, “Bactericidal/permeability increasing protein for use in a method of immunization, preferably as an adjuvant in a method of vaccination” (UNIVERSITÄT REGENSBURG, priority 2018, dated 2026):
# Columns and labels:
# [1] = test system: bone marrow derived dendritic cells (BMDCs); assay: FACS surface expression of maturation markers/costimulatory molecules on BMDCs; assay type: cell-based, C57BL/6J mice; details: huBPI 200 nM, 18 h, vs unstimulated cells, n=4 (FIG. 1)
# Method: BMDCs were generated from the bone marrow of male C57BL/6J mice at the age of approximately 3 to 7 months, which were bred under SPF conditions. BMDCs were generated as previously described. BMDCs were harvested on day 7 by rinsing the dish in order to obtain the non-adherent and loosely-adherent cell fractions.
# Cell Stimulation 5×10^4 BMDCs per well were seeded into a tissue-culture-treated 96-well plate in VLE-RPMI 1640 media (10% FCS, 10% Penicillin-Streptomycin, 50 µM β-Mercaptoethanol) and stimulated with 200 nM huBPI.
# BMDCs were stimulated with huBPI (200 nM) for 18 h. After the stimulation period, the stimulated and unstimulated cells were incubated with Fc-Block and stained using the indicated antibodies (Table 1) and the respective isotype controls (Table 2). 7-Aminoactinomycin D (7-AAD, #00-6993-50, eBioscience) positive stained cells were excluded from the analysis. Flow cytometry measurement was performed using the instrument BD FACS Canto™ II (BD Bioscience). Data was analyzed using BD FACSDiva™ software v.7.0 (BD Bioscience) as well as FlowJo v.10 (Tree Star).
# [2] = test system: murine dendritic cells (BMDC); assay: TNFα ELISA in murine dendritic cells (BMDC); assay type: cell-based; details: LPS Ec 10 ng/ml or BPI 100 nM, 18 h, ELISA (FIG. 4A)
# Method: Generation of BMDM was carried out similarly to BMDCs; MCSF was used instead of GMSCF for differentiation of BMDM. Cells were re-plated on day 1 of culture and harvested on day 5. On day 1, cells were seeded in new plates and harvested on day 5 for the experiments. Cells were stimulated with LPS Ec (10 ng/ml) or BPI (100 nM) for 18 h before supernatants were collected. TNFα levels were determined by ELISA (OPTEIA™ Murine TNFα ELISA Set, BD Bioscience, Heidelberg, Germany).
molecule,measurement,setting,value
"bactericidal/permeability-increasing protein (protein, labeled with NT647 (Monolith NT Protein Labeling Kit RED-NHS) in the MST experiments, recombinant human BPI, aa32-487 of huBPI with N-terminal HA signal peptide, expressed in HEK293T cells) RIKIPDYSDSFKIKHLGKGHYSFYSMDIREFQLPSSQISMVPNVGLKFSISNANIKISGKWKAQKRFLKMSGNFDLSIEGMSISADLKLGSNPTSGKPTITCSSCSSHINSVHVHISKSKVGWLIQLFHKKIESALRNKMNSQVCEKVTNSVSSELQPYFQTLPVMTKIDSVAGINYGLVAPPATTAETLDVQMKGEFYSENHHNPPPFAPPVMEFPAAHDRMVYLGLSDYFFNTAGLVYQEAGVLKMTLRDDMIPKESKFRLTTKFFGTFLPEVAKKFPNMKIQIHVSASTPPHLSVQPTGLTFYPAVDVQAFAVLPNSSLASLFLIGMHTTGSMEVSAESNRLVGELKLDRLLLELKHSNIGPFPVELLQDIMNYIVPILVLPRVNEKLQKGFPLPTPARVQLYNVVLQPHQNFLLFGADVVYK","expression of costimulatory receptors CD40, CD80, and CD86",[1],"promotes expression of costimulatory receptors CD40, CD80, and CD86"
same,TNFα secretion by dendritic cells,[2],secrete TNFα
